Experimental data published in PMC8260793, “A split protease-E. coli ClpXP system quantifies protein–protein interactions in Escherichia coli cells” (Communications Biology, 2021).

B1: Cas3 of E. coli K12 Type I-E CRISPR/Cas complex [E. coli K12] / Cas6 of E. coli K12 Type I-E CRISPR/Cas complex [E. coli K12] (parent complex)
chain 1: MEPFKYICHYWGKSSKSLTKGNDIHLLIYHCLDVAAVADCWWDQSVVLQNTFCRNEMLSKQRVKAWLLFFIALHDIGKFDIRFQYKSAESWLKLNPATPSLNGPSTQMCRKFNHGAAGLYWFNQDSLSEQSLGDFFSFFDAAPHPYESWFPWVEAVTGHHGFILHSQDQDKSRWEMPASLASYAAQDKQAREEWISVLEALFLTPAGLSINDIPPDCSSLLAGFCSLADWLGSWTTTNTFLFNEDAPSDINALRTYFQDRQQDASRVLELSGLVSNKRCYEGVHALLDNGYQPRQLQVLVDALPVAPGLTVIEAPTGSGKTETALAYAWKLIDQQIADSVIFALPTQATANAMLTRMEASASHLFSSPNLILAHGNSRFNHLFQSIKSRAITEQGQEEAWVQCCQWLSQSNKKVFLGQIGVCTIDQVLISVLPVKHRFIRGLGIGRSVLIVDEVHAYDTYMNGLLEAVLKAQADVGGSVILLSATLPMKQKQKLLDTYGLHTDPVENNSAYPLINWRGVNGAQRFDLLAHPEQLPPRFSIQPEPICLADMLPDLTMLERMIAAANAGAQVCLICNLVDVAQVCYQRLKELNNTQVDIDLFHARFTLNDRREKENRVISNFGKNGKRNVGRILVATQVVEQSLDVDFDWLITQHCPADLLFQRLGRLHRHHRKYRPAGFEIPVATILLPDGEGYGRHEHIYSNVRVMWRTQQHIEELNGASLFFPDAYRQWLDSIYDDAEMDEPEWVGNGMDKFESAECEKRFKARKVLQWAEEYSLQDNDETILAVTRDGEMSLPLLPYVQTSSGKQLLDGQVYEDLSHEQQYEALALNRVNVPFTWKRSFSEVVDEDGLLWLEGKQNLDGWVWQGNSIVITYTGDEGMTRVIPANPK
chain 2: MYLSKVIIARAWSRDLYQLHQGLWHLFPNRPDAARDFLFHVEKRNTPEGCHVLLQSAQMPVSTAVATVIKTKQVEFQLQVGVPLYFRLRANPIKTILDNQKRLDSKGNIKRCRVPLIKEAEQIAWLQRKLGNAARVEDVHPISERPQYFSGDGKSGKIQTVCFEGVLTINDAPALIDLVQQGIGPAKSMGCGLLSLAPL
B2: Cas3 of E. coli K12 Type I-E CRISPR/Cas complex [E. coli K12] / Cas7 of E. coli K12 Type I-E CRISPR/Cas complex [E. coli K12] (parent complex)
chain 1: B1 chain 1
chain 2: MSNFINIHVLISHSPSCLNRDDMNMQKDAIFGGKRRVRISSQSLKRAMRKSGYYAQNIGESSLRTIHLAQLRDVLRQKLGERFDQKIIDKTLALLSGKSVDEAEKISADAVTPWVVGEIAWFCEQVAKAEADNLDDKKLLKVLKEDIAAIRVNLQQGVDIALSGRMATSGMMTELGKVDGAMSIAHAITTHQVDSDIDWFTAVDDLQEQGSAHLGTQEFSSGVFYRYANINLAQLQENLGGASREQALEIATHVVHMLATEVPGAKQRTYAAFNPADMVMVNFSDMPLSMANAFEKAVKAKDGFLQPSIQAFNQYWDRVANGYGLNGAAAQFSLSDVDPITAQVKQMPTLEQLKSWVRNNGEA
B3: Cas3 of E. coli K12 Type I-E CRISPR/Cas complex [E. coli K12] / Cas5 of E. coli K12 Type I-E CRISPR/Cas complex [E. coli K12] (parent complex)
chain 1: B1 chain 1
chain 2: MRSYLILRLAGPMQAWGQPTFEGTRPTGRFPTRSGLLGLLGACLGIQRDDTSSLQALSESVQFAVRCDELILDDRRVSVTGLRDYHTVLGAREDYRGLKSHETIQTWREYLCDASFTVALWLTPHATMVISELEKAVLKPRYTPYLGRRSCPLTHPLFLGTCQASDPQKALLNYEPVGGDIYSEESVTGHHLKFTARDEPMITLPRQFASREWYVIKGGMDVSQ
B4: Cas3 of E. coli K12 Type I-E CRISPR/Cas complex [E. coli K12] / Cas11 of E. coli K12 Type I-E CRISPR/Cas complex [E. coli K12] (parent complex)
chain 1: B1 chain 1
chain 2: MADEIDAMALYRAWQQLDNGSCAQIRRVSEPDELRDIPAFYRLVQPFGWENPRHQQALLRMVFCLSAGKNVIRHQDKKSEQTTGISLGRALANSGRINERRIFQLIRADRTADMVQLRRLLTHAEPVLDWPLMARMLTWWGKRERQQLLEDFVLTTNKNA
B5: Cas3 of E. coli K12 Type I-E CRISPR/Cas complex [E. coli K12] / Cas1 of E. coli K12 Type I-E CRISPR/Cas complex [E. coli K12] (parent complex)
chain 1: B1 chain 1
chain 2: MTWLPLNPIPLKDRVSMIFLQYGQIDVIDGAFVLIDKTGIRTHIPVGSVACIMLEPGTRVSHAAVRLAAQVGTLLVWVGEAGVRVYASGQPGGARSDKLLYQAKLALDEDLRLKVVRKMFELRFGEPAPARRSVEQLRGIEGSRVRATYALLAKQYGVTWNGRRYDPKDWEKGDTINQCISAATSCLYGVTEAAILAAGYAPAIGFVHTGKPLSFVYDIADIIKFDTVVPKAFEIARRNPGEPDREVRLACRDIFRSSKTLAKLIPLIEDVLAAGEIQPPAPPEDAQPVAIPLPVSLGDAGHRSS
B6: Cas3 of E. coli K12 Type I-E CRISPR/Cas complex [E. coli K12] / Cas2 of E. coli K12 Type I-E CRISPR/Cas complex [E. coli K12] (parent complex)
chain 1: B1 chain 1
chain 2: MSMLVVVTENVPPRLRGRLAIWLLEVRAGVYVGDVSAKIREMIWEQIAGLAEEGNVVMAWATNTETGFEFQTFGLNRRTPVDLDGLRLVSFLPV
B7: Cas3 of E. coli K12 Type I-E CRISPR/Cas complex [E. coli K12] / Cas8 of E. coli K12 Type I-E CRISPR/Cas complex [E. coli K12] (parent complex)
chain 1: B1 chain 1
chain 2: MNLLIDNWIPVRPRNGGKVQIINLQSLYCSRDQWRLSLPRDDMELAALALLVCIGQIIAPAKDDVEFRHRIMNPLTEDEFQQLIAPWIDMFYLNHAEHPFMQTKGVKANDVTPMEKLLAGVSGATNCAFVNQPGQGEALCGGCTAIALFNQANQAPGFGGGFKSGLRGGTPVTTFVRGIDLRSTVLLNVLTLPRLQKQFPNESHTENQPTWIKPIKSNESIPASSIGFVRGLFWQPAHIELCDPIGIGKCSCCGQESNLRYTGFLKEKFTFTVNGLWPHPHSPCLVTVKKGEVEEKFLAFTTSAPSWTQISRVVVDKIIQNENGNRVAAVVNQFRNIAPQSPLELIMGGYRNNQASILERRHDVLMFNQGWQQYGNVINEIVTVGLGYKTALRKALYTFAEGFKNKDFKGAGVSVHETAERHFYRQSELLIPDVLANVNFSQADEVIADLRDKLHQLCEMLFNQSVAPYAHHPKLISTLALARATLYKHLRELKPQGGPSNG

Variants of: B1
Test: SPEC system (split protease-E. coli ClpXP) in E. coli cells; parent: 100; read off a plot

| percent of parent [%] | Variant |
| --- | --- |
| ~130 | chain 1 S483A, chain 1 T485A |
| ~120 | chain 1 K320N |

Continued, variant first:

| Variant | percent of parent [%] |
| --- | --- |
| chain 1 H74A | ~150 |
| chain 1 D75A | ~110 |
| chain 1 D452N | ~140 |
| chain 1 K78A | ~95 |

Variants of: B2
Test: as above

| percent of parent [%] | Variant |
| --- | --- |
| ~73 | chain 1 K78A |
| ~25 | chain 1 S483A, chain 1 T485A |
| ~120 | chain 1 D452N |
| ~120 | chain 1 K320N |

Variants of: B3
Test: as above

| percent of parent [%] | Variant |
| --- | --- |
| ~45 | chain 1 H74A |
| ~67 | chain 1 K78A |
| ~110 | chain 1 D452N |

Variants of: B4
Test: as above

| percent of parent [%] | Variant |
| --- | --- |
| ~110 | chain 1 K78A |
| ~110 | chain 1 H74A |
| ~73 | chain 1 S483A, chain 1 T485A |

Variants of: B5
Test: as above

| percent of parent [%] | Variant |
| --- | --- |
| ~50 | chain 1 K78A |
| ~120 | chain 1 K320N |
| ~110 | chain 1 S483A, chain 1 T485A |

Further lines, the variant ahead of its results:

| Variant | percent of parent [%] |
| --- | --- |
| chain 1 D452N | ~130 |
| chain 1 H74A | ~60 |

Variants of: B6
Test: as above

| percent of parent [%] | Variant |
| --- | --- |
| ~130 | chain 1 K320N |
| ~110 | chain 1 K78A |

Further lines, the variant ahead of its results:

| Variant | percent of parent [%] |
| --- | --- |
| chain 1 H74A | ~130 |
| chain 1 D452N | ~130 |

Variants of: B7
Test: as above

| percent of parent [%] | Variant |
| --- | --- |
| ~82 | chain 1 H74A |
| ~83 | chain 1 K320N |
| ~97 | chain 1 S483A, chain 1 T485A |
